Measured values published in the DeepSol protein solubility set.

assay: soluble on expression in E. coli; label from the status in PepcDB or PDB records

Row | Sequence | soluble on expression in E. coli
1 | MSLSHMANEMLLDIDGMDFVEDEDMGAEGELQFSFDPVSNAPMVSFPSTQQPDLEKLRFKFAPVLSRSFAFNGGSRTGTLYGVQVPYVDNSKEFSQYAAKLFEVYKSLGADKQFAVPTIGLINHTSTLEHNQTVNLALEAIVSELELFIESLKYSGRQQRLVDLEECLSILNCLKTVQFTLDSEEENSRAKFIDSLISWVNRTDGEPSEAVIAKVLGDGKQTPILENPYFWRLLCQLIIRGLFDQAVAAIEKSELLSYLADKCSATHTMVQDMVNLLQGYPRELEPVYREWKDLVLQLHLNWSQSEHKISIELASSLEDCLLIMCGNKSKIIYYSKTWYECYCGLMLYYIPSLQLSEEYLQLVLKEHPLDVTSPWEQACVSIITGKIYSILPVLDSLDSCTAAFTAAICEAKGLLENDLLDDGGLEVSNTGDEMFGLGNTMASYLLNQFALSIVTYEDKNLWAVAIGIIYLTPNYSDAAKRMMIAELLPHYPFQTNDDIEWMLTICAKWKLPQIARTIYRVLGQEALYLNNIIEAISNFSKAGEFEWVKHYSWMIFEASILQGAPLEDEVVNSIVTGEYESAIPKELVEVMVTPAMKQSLSPYAVLFNFFRATEDGRWAEALKLLLSLIEFTYLPPQYLILLIGRFLYPLFLQDESKMFKEQDVLRVIKALEQFHDRPDEITTAMYKELLVKVDTLPKDPLNLINAIRTKLSLKLCHQFMEGHHHHHH | not soluble
2 | MADLEAVLADVSYLMAMEKSRSQPAARASKRIVLPDPSVRSIMQKFLEKSGDMKFDKIFNQKLGFLLLKDYAENVSESPCPQIKFYEAIKEYEKMETPDERLTKAREIYDHHIMVEMLAHAHNYSKESLQHVQYHLLKQNVPPDLFHRYVLEICDQLRGDIFQRFLESDKFTRFCQWKNLELNMQLTMNDFSVHRIIGRGGFGEVYGCRKADTGKMYAMKCLDKKRIKMKQGETLALNERIMLSLVSTGQDCPFIVCMTYAFQSPDKLCFILDLMNGGDLHYHLSQHGVFTEQEMIFYASEVILGLEHMHNRFVVYRDLKPANILLDENGHVRVSDLGLACDYSKKKPHASVGTHGYMAPEVLAKGVAYDSSADWFSLGCMLYKLLKGHSPFRQHKSKDKNEIDKMTLTQDIELPNEGLSKDCRDLLEGLLKRDVPDRLGCRGKGPTEVKEHPFFKDVDWQTVYLRRMTPPLIPPRGEVNAADAFDIGNFDDDEVKGVKLQDGDSDLYKNFNIVISERWQNEIAETIFEVVNQDADKAESKKRSKQKIKVAVEEKDSDVIVHGYIKKLGGPFTSAWQTKYGKLYPSRLELYPESLTAKPELVFMDQIEDVCAEMQTIKGETAIIVKLRDGFKEPKICLTNSDEISLKEWHTSLRTAHKVSQELLQRMGRKAIKIYGVNHDPMLSESERPGSVTRAFLNRASSVDSGV | not soluble
3 | MDLFLALRELGRPDQMNLSYLYLKKILEEELRDHDCQCQLNPDFTVTISCRVDGPHGALYIVPNSDFLKSSSFSDLSAFILNLREEIRRFGEFEAELQTGTG | not soluble
4 | GPGSMKRADGRESPRAVRAIHVATNVLANCHSSACVEIGKTRVLCGVRPPQHLVQEYRGTRGRVSCQVHRSLASSSNLDNSGDRDMALALEGVAEQAVVLERIPQLLVGVLIEVVHDDGALWDAATTALCVALTAGGVEVYDTFSACSAALRHDGAIIVDLTREEAAAAMASVVVCSGLSLGGVYYCCHKGACEATTMSQLVQAATKGLQVRKVPLLEQIRNQLV | soluble
5 | MATLTAKNLAKAYKGRRVVEDVSLTVNSGEIVGLLGPNGAGKTTTFYMVVGIVPRDAGNIIIDDDDISLLPLHARARRGIGYLPQEASIFRRLSVYDNLMAVLQIRDDLSAEQREDRANELMEEFHIEHLRDSMGQSLSGGERRRVEIARALAANPKFILLDEPFAGVDPISVIDIKRIIEHLRDSGLGVLITDHNVRETLAVCERAYIVSQGHLIAHGTPTEILQDEHVKRVYLGEDFRL | soluble
6 | PSVYDAAAQLTADVKKDLRDSWKVWGSDKKGNGVALMTTLFADNQETIGYFKRLGDVSQGMANDKLRGHSITLMYALQNFIDQLDNPDDLVCVVEKFAVNHITRKISAAEFGKINGPIKKVLASKNFGDKYANAWAKLVAVVQAAL | soluble
7 | MGSDKIHHHHHHMFLAGAFIAVGSLYAQSSDAEWQAGVAKLKETIQTNPAQANEEAEQLIKGKNKKNVELLVAIGEVYLKAGKLPEAQEYAALAKKVNGKSALASVLEGDIAFEQKNAGLASQKYEEAIYFDPSCTEAYLRYADIYKSANAALAIEKLEQLKAQEPSNTAVDKKLAEIYYLKNDFSKAAEAYSRFAMGPTATEEDLVKYAFALFLNHDFEKSLEVANMGLKKNARHAAFNRLAMYNYTDLKRFDEAIKAADAFFTESDKADYSYLDYMYYGHLLEALKKYDEAVGQYEKAIQLDPTKTDLYKNISSAYEQKNDYKKAISAYQKYYTSLDKEHQTPDLQFQFGRLYYGAGTQTDSLTINAEERKQALMAADSVFHSIAEAAPDSYLGNFWRARANSALDPETTLGLAKPFYEEVATLLESKNDPHYNSALIECYSYLGYYYLLAIENPALKAEAMANKEKSKEYWSKILAIDSTNATAKRALDGIK | not soluble
8 | TKAVHTKHAPAAIGPYSQGIIVNNMFYSSGQIPLTPSGEMVNGDIKEQTHQVFSNLKAVLEEAGASFETVVKATVFIADMEQFAEVNEVYGQYFDTHKPARSCVEVARLPKDALVEIEVIALVK | soluble
9 | MASQVSQMPSSSPLSSNKDEMRPKADFQPSIWGDLFLNCPDKNIDAETEKRHQQLKEEVRKMIVAPMANSTQKLAFIDSVQRLGVSYHFTKEIEDELENIYHNNNDAENDLYTTSIRFRLLREHGYNVSCDVFNKFKDEQGNFKSSVTSDVRGLLELYQASYLRVHGEDILDEAISFTTHHLSLAVASLDHPLSEEVSHALKQSIRRGLPRVEARHYLSVYQDIESHNKALLEFAKIDFNMLQFLHRKELSEICRWWKDLDFQRKLPYARDRVVEGYFWISGVYFEPQYSLGRKMLTKVIAMASIVDDTYDSYATYEELIPYTNAIERWDIKCIDEIPEYMKPSYKALLDVYEEMVQLVAEHGRQYRVEYAKNAMIRLAQSYLVEAKWTLQNYKPSFEEFKANALPTCGYAMLAITSFVGMGDIVTPETFKWAASDPKIIQASTIICRFMDDVAEHKFKHRREDDCSAIECYMEEYGVTAQEAYDVFNKHVESAWKDLNQEFLKPTEMPTEVLNRSLNLARVMDVLYREGDGYTYVGKAAKGGITSLLIEPIAL | soluble
10 | MWIEELANGKFKYIERYTDPLTNKYKKVSVTLDKNSSQAQKKAGLILQEKIEDRLAIRNHSEMTYGELKKEYLKQWIPTVKDSTKRGYLVSDSHIATVLPDDTIINKLTKRDIRLIIDKLLKHNSYHVTHKCRKRLHAIFSYAIQMDYMTSNPTENVLVPKPKDDYKPEKVLYLTSNEVYDLCNRMIDNDEQTLADIVLFMFLTGVRYGELSCLTYDKIDFENKEILINATYDFNTREITTTKTKKSTRKISVSDNILDIVNRQKKTSSFVFPNSNGVPILNAYINKRLKIYGDYHTHLFRHSHISFLAEKGIPLNAIMDRVGHSDPKTTLSIYSHTTVNMKEIINKQTAPFVPLLKSE | not soluble
11 | MSLALQEQCLWETLTPQRPDRAPLKGELTADVCIIGAGFTGLSAAVHLLEQGKRVCVVEAHRAGHGGSGRNVGLVNAGMWIPPDEIEAGFGEQVGSQLNRMLGAAPSLVFSLVDKYHIDCQLRREGTLHMAHNARGEADLRSREEQWKRRGAPVELLTGAACEAATGTRKIAAALLDRRAGTLNPMAYVSGLARAATELGGRLFDHSPVTRLERQGQRWSVQTEQGSVLAEQVVIASNAYTEGDWTELRRNFFPGYYYQVASAPLTEEAARQILPGGQGSWDTRQVLSSIRRDAEGRLLLGSLGNGSQKPLWFLKAWADRVQQHYFPYLKPVEWECTWTGCIAFTPDHLMRLFEPAPGLVAVTGYNGRGVTTGTVVGKAFADYLCNGDPQALPIPFAAMQPLAGVGLRSCLYEAGFSLYHAGQCLRIVEGHHHHHH | not soluble
12 | SLSCRKEQGKFYDHLLRDCISCASICGQHPKQCAYFCENKLR | soluble
13 | MSLSLVSQYIDLTEHFQNLIAVILKNPEKVWQMQLNYLEDALSLAQAQFNYWLEGKPLPINDQRFNGEDWINNPFFNLLSQHYLLANEHMNSLLENMEYGDENLAKRVRFFTRQYLDALSPANFIHTNPQLMAETLQSHGKNLLRGLHNLLSDVEAGSSRLIIKMTDTEAFKIGENLATTPGKVIFRNSMMELIQYCPRTTKAKSIPLLIVPPWINKYYILDLSPHNSLIRWLVEQGITVFIISWVNPDETYANKSFYDYLNEGPREAISVIQKQLRVKQVNTLGFCIGGTLLASLLAYNKATKDLSIRSATFLAAMIDFSDPGDIAVFIDEQQINKLEEEMKSKGYLAGKFMASSFNSLRANDLIWSFFIKNYLRGKSPVPFDILYWNADSTNMPATMHSQYLRWMYLHNNLIKPGKIRLNHIPVDVTNIDIPTFFLSTQKDHIAPWKTTYKGFELMKGPKRFVLGGSGHIAGIINPPTQQKYGYRTNNSMDLSAEQWFEKSKEHSGSWWPEWLNWLKLHSGRLINAPDINHLPFAPIMDAPGSYVLKKEGHHHHHH | soluble
14 | MGHHHHHHSHMNIQKDGKNVTSRREWIEKLVESKGKVDIEELASHFGVSSMTIRRDLMHLEEHNKLIRTHGGAVAPSSLIGETPYAQKQTEHLMEKQLIAKQASTLVPEGATILVDSGTTTLELIKLLKDRNDLTIVTNDITIAAELVNASPKCIVTGGELQLGVGALFGPQTEGMIRELHVDLFFLGAHAVDEAAGVTAPTLEKAAIKKRMMEAAQTTWLICDSSKFSKRAFANVCQLTKLEGIITDANFLTSFKHENYHDNMVIAQA | soluble
15 | MGASKYDVKRLVDDYVNRLAKNGVLPDVIDKEPILPRVTLPESEITSQSYRKYPKKPKAIGKVGSTGGNRNGMGAIHPTLISYPEEQRKTNSRVKNNRSNYHIGNIGNIGGNIGNGQKMNRNKNGGRNQGGNHPDNMGIPMFPIARPTPYDLAEYIERGLNTGRSNHRTPQNFRRYPEHECDYYAGPCATSF | not soluble
16 | MSSLNKLAIDQLNLAGKRVLIRVDFNVPLKDGKITNNQRIAAAVPTIQHALSNGAKSVVLMSHLGRPDGRRQDKYTLKPVAEELKALLKKDVLFLDDCVGSEVEAACADPAPGSVILLENLRYHLEEEGKGVDASGAKVKADSAAVKKFRESLTKLGDIYVNDAFGTAHRAHSSMVGVEHSQRASGFLLKNELSYFSKALDNPARPFLAILGGAKVADKIQLIKNLLDKVNEMIIGGGMAYTFLKVAQGVKIGNSLYDEEGAKIVNELLEAAKAKGVQIHLPVDFVIADKFAEDATSKTVTAEEGVPDGHMGLDVGPESSKIFAAAIQRAKTIVWNGPAGVFEFDKFATGTKSLMDEVVKATAAGAITIIGGGDTATAAKKYNTEDKVSHVSTGGGASLELLEGKVLPGVDALSPAQ | soluble
17 | MMTSNSYWQRLKVAFQYVMPQIYLTQIAGWFAKQKWGKITHFVIKAFAKKYNIDMSIAQKEQFSDYASFNEFFIRPLKENARPINQNPTALCLPADGRISECGHIDDNLLLQAKGHFFSLEDLLAEDKELVETFKNGEFVTTYLSPRDYHRVHMPCDATLRKMIYVPGDLFSVNPFLAQHVPNLFARNERVICVFDTEFGTMVQILVGATITASIGTTWAGVINPPRHNEVKTWTYEGESAVKLLKGQEMGWFQLGSTVINLFQANQVRLADHLSVNEPVRMGEILAYKKLEHHHHHH | not soluble
18 | PDYIYAKDTAGRFLIANEVTVADNGLESLRDLVGKTDFDLHPHEFAQAVADTERRVLETGEPIFGIEERAIVTKDRDRWLMTSKVPLRSKSGRIIGIVGISRD | not soluble
